Columns and labels:
Assay in all cases: holdup assay
Design in all cases: key: below the threshold = too weak to quantify, mostly under pKd 3.1 to 4
Conditions in all cases: plain residues with an end cap or a label only (N-terminal biotin on a linker: ttds)
MAGI3_3, Q5TCQ9 = biological target: MAGI3_3, Q5TCQ9
SHANK3, Q9BYB0 = biological target: T1, SHANK3, Q9BYB0
T1 sequence (Q9BYB0 641-750, limits assumed, looked up): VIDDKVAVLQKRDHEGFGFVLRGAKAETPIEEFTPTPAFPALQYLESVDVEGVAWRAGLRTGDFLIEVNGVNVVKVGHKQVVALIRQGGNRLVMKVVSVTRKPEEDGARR

PDZD9, Q8IXQ8 = biological target: PDZD9, Q8IXQ8
PDZD7_2, Q9H5P4 = biological target: T2, PDZD7_2, Q9H5P4
T2 sequence (Q9H5P4 205-303, limits assumed, looked up): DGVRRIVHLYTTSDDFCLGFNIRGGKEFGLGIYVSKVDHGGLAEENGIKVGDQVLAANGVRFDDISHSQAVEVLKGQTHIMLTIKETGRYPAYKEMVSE

TJP3_2, O95049 = biological target: T3, TJP3_2, O95049
T3 sequence (O95049 190-282, limits assumed, looked up): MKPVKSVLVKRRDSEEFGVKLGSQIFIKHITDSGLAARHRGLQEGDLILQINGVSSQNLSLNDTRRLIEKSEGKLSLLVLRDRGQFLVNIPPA

SHROOM3, Q8TF72 = biological target: T4, SHROOM3, Q8TF72
T4 sequence (Q8TF72 20-120, limits assumed, looked up): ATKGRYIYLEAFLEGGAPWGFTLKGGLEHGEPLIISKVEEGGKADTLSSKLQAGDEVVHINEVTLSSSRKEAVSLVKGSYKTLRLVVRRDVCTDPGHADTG

PDZD2_4, O15018 = biological target: T5, PDZD2_4, O15018
T5 sequence (O15018 723-823, limits assumed, looked up): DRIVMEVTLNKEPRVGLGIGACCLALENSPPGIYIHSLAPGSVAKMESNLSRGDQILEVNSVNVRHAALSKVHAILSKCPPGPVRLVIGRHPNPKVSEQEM

MPDZ_7, O75970 = biological target: T6, MPDZ_7, O75970
T6 sequence (O75970 1146-1253, limits assumed, looked up): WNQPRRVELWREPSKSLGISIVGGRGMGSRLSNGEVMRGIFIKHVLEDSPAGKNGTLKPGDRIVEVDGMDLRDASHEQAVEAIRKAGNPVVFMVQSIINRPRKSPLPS

GIPC1, O14908 = biological target: T7, GIPC1, O14908
T7 sequence (O14908 128-223, limits assumed, looked up): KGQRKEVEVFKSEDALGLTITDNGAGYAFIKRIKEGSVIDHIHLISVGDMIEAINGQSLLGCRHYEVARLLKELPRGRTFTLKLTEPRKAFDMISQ

PDZD4, Q76G19 = biological target: T8, PDZD4, Q76G19
T8 sequence (Q76G19 125-224, limits assumed, looked up): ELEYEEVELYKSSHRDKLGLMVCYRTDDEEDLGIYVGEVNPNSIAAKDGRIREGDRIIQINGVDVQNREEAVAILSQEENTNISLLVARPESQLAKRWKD

MAGI3_6, Q5TCQ9 = biological target: MAGI3_6, Q5TCQ9
NHERF3_2, Q5T2W1 = biological target: T9, NHERF3_2, Q5T2W1
T9 sequence (Q5T2W1 129-225, limits assumed, looked up): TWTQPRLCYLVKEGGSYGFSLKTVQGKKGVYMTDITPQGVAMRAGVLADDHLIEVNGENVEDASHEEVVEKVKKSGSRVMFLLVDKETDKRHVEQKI

PTPN13_4, Q12923 = biological target: T10, PTPN13_4, Q12923
T10 sequence (Q12923 1783-1878, limits assumed, looked up): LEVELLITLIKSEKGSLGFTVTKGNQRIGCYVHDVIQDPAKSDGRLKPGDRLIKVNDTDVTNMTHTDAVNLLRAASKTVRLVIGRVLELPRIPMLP

GRIP2_2, Q9C0E4 = biological target: GRIP2_2, Q9C0E4
RGS3, P49796-9 = biological target: RGS3, P49796-9
NHERF1_2, O14745 = biological target: T11, NHERF1_2, O14745
T11 sequence (O14745 149-244, limits assumed, looked up): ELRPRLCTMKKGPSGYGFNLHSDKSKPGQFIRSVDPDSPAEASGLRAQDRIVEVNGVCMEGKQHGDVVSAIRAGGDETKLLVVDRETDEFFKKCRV

DVL1, O14640 = biological target: T12, DVL1, O14640
T12 sequence (O14640 246-333, limits assumed, looked up): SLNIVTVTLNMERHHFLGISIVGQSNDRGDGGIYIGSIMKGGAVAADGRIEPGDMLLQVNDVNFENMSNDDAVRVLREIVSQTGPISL

TJP1_1, Q07157 = biological target: TJP1_1, Q07157
PTPN13_5, Q12923 = biological target: T13, PTPN13_5, Q12923
T13 sequence (Q12923 1877-1975, limits assumed, looked up): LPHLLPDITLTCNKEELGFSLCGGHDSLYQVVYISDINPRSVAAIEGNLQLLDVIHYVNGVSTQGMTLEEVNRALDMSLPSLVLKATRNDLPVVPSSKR

SIPA1L3, O60292 = biological target: T14, SIPA1L3, O60292
T14 sequence (O60292 961-1052, limits assumed, looked up): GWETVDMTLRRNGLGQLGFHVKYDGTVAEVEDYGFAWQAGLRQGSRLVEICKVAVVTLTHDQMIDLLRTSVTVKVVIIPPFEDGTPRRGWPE

RGS12, O14924 = biological target: T15, RGS12, O14924
T15 sequence (O14924 17-108, limits assumed, looked up): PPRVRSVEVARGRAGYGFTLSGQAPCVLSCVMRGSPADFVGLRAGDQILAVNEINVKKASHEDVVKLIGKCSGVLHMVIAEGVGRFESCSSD

MAGIX, Q9H6Y5 = biological target: MAGIX, Q9H6Y5
Sequence of MAGIX, Q9H6Y5 (Q9H6Y5 118-211): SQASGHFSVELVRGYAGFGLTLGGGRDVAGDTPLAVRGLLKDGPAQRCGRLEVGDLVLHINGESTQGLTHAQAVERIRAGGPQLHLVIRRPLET

Sequence of RGS3, P49796-9 (P49796 other isoform, or with tags, fused parts or gaps): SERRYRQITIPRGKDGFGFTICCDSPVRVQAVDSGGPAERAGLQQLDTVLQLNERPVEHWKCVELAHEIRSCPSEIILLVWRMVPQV
Sequence of PDZD9, Q8IXQ8 (Q8IXQ8 23-120): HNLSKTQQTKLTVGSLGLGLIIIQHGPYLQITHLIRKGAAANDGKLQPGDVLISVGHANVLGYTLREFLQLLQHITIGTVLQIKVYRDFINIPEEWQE
Sequence of GRIP2_2, Q9C0E4 (Q9C0E4 137-245): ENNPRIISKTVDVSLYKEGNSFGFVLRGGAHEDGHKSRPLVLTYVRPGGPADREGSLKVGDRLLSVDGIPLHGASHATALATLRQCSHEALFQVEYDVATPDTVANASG
Sequence of MAGI3_6, Q5TCQ9 (Q5TCQ9 1014-1103): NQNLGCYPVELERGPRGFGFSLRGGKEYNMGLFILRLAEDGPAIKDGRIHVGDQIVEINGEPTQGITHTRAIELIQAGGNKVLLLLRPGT
Sequence of MAGI3_3, Q5TCQ9 (Q5TCQ9 572-655): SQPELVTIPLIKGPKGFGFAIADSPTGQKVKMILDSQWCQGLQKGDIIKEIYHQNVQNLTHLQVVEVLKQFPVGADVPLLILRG
Sequence of TJP1_1, Q07157 (Q07157 18-120): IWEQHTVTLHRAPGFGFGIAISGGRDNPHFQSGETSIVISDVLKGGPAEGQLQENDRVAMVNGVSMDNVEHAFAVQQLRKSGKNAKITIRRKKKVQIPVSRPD

STLTIFETAL [ABCC4, O15439] was tested, and the pKd (MAGI3_3, Q5TCQ9) was “below the threshold”, the pKd (SHANK3, Q9BYB0) was 5.54 and the pKd (PDZD9, Q8IXQ8) was “below the threshold”. For the same binder, the pKd (PDZD7_2, Q9H5P4) was 4.54, the pKd (TJP3_2, O95049) was “below the threshold” and the pKd (SHROOM3, Q8TF72) was “below the threshold”. The pKd (PDZD2_4, O15018) was “below the threshold”, the pKd (MPDZ_7, O75970) was 5.01 and the pKd (GIPC1, O14908) was 4.1. The pKd (PDZD4, Q76G19) was 4.08, the pKd (MAGI3_6, Q5TCQ9) was 4.21 and the pKd (NHERF3_2, Q5T2W1) was 4.06. For the same binder, the pKd (PTPN13_4, Q12923) was “below the threshold”, the pKd (GRIP2_2, Q9C0E4) was “below the threshold” and the pKd (RGS3, P49796-9) was “below the threshold”. The pKd (NHERF1_2, O14745) was “below the threshold”, the pKd (DVL1, O14640) was “below the threshold” and the pKd (TJP1_1, Q07157) was “below the threshold”. The pKd (PTPN13_5, Q12923) was “below the threshold”, the pKd (SIPA1L3, O60292) was “below the threshold” and the pKd (RGS12, O14924) was “below the threshold”. The pKd (MAGIX, Q9H6Y5) was “below the threshold”.

— article PMC9482650, “Quantitative fragmentomics allow affinity mapping of interactomes” (Nature Communications, 2022)
